# Laboratory results taken from paper PMC6114107, “Characterization and validation of Entamoeba histolytica pantothenate kinase as a novel anti-amebic drug target” (International Journal for Parasitology: Drugs and Drug …, 2018).
# B1: E. histolytica pantothenate kinase (Entamoeba histolytica HM-1:IMSS) (protein)
# chain: MSQPSHSIPSKHSVLSNEDIEHDDHITHTFEQYEFTKTQSPLPLNGVRRRTAPLSADMGGTMTKIVFWIPGDTDIDLPKYVEPEESVMSGFDLYPDPVLKVTMNSKGENELCFMKFPTSQIPEFIHYAKTSKLKEIYGIGNLQILNVTGGGAYKFANLLKDEMDLEVRQQDEMRCLVLGVNFLLLCCQEKLCFRFVNKTKLYREVTPEIFPYLLVNVGSGVSILKVTAPEKYERVSGSLIGGGTFWGLCCLLTNYKSFDEMLQAAQYGQHQNVDLYVKDIYGRCYDSVGLAADMMASSFGKIQKVPCGEAKNHYSEADIAQGLMMMVCGSIAHLGFELTKLHHINRIFYTGGFVAHNPVVWEAITTMLTTWSSGSVDANFLEYDGYFGSIGALLLSEYEEELM
# Key:
# Type in all cases: biochemical, Entamoeba histolytica
# recombinant EhPanK = assay: Regulation of EhPanK by CoA, acetyl CoA and malonyl CoA (double-reciprocal plots); details: inhibitor 0, 0.5, 2 mM
# Excerpt: PanK from other organisms was reported to be negatively regulated by allosteric inhibition with CoA, acetyl CoA, and malonyl CoA ([Calder et al., 1999]; [Takagi et al., 2010]; [Vallari et al., 1987]). […] The mechanisms of inhibition by acetyl CoA were not clear but seemed to be the mixed type with respect to ATP and pantothenate (Fig. 3).
# Fig. 2 Effect of CoA, acetyl CoA, and malonyl CoA on the pantothenate kinase activities. Relative activities of EhPanK in the presence of various concentrations of inhibitors to those without inhibitors are shown. […] The assays were carried out three times independently, and the results are shown as means ± SEM of triplicates.
# Fig. 3 Double-reciprocal plots of the recombinant EhPanK in the presence of CoA (A and B), malonyl CoA (C and D), or acetyl CoA (E and F). The enzymatic activities were determined with various concentrations of ATP and 0.2 mM pantothenate (A, C, and E) or various concentrations of pantothenate and 100 μM ATP (B, D, and F), in the presence of three concentrations of inhibitors (0, 0.5, and 2 mM). Data are shown in means ± SEM of triplicate analyses.
# [1] = substrate: CC(C)(CO)[C@@H](O)C(=O)NCCC(=O)O; assay: Kinetic parameters of recombinant EhPanK for its substrates; details: other: apparent Km at saturating concentration of the other substrate, 37 °C, pH 6, mean ± SEM
# Experimental: (§1) PanK and DPCK activities in the cell lysate were measured with coupled assays using ADP Hunter™ Plus Assay kit (DiscoverX, US) according to the manufacturer's instructions. […] Kinetic data were estimated by curve fitting with the Michaelis–Menten equation using GraphPad Prism (GraphPad Software Inc., San Diego, USA). This experiment was repeated three times in triplicate with proteins isolated from two independent extractions, and kinetic values are presented as the means ± S.E. for three independent kinetic assays.
# (§2) Table 1 summarizes the apparent Km, Vmax, and Kcat values for EhPanK using pantothenate and ATP as substrates.
# (§3) Fig. S5. Optimum pH and temperature (A) and initial rate plots (B, C) of EhPanK. B) The velocity of EhPanK reaction at various pantothenate concentrations in the presence of 25, 50, or 100 μM ATP. C). The velocity of EhPanK reaction at various ATP concentrations in the presence of 8, 64, or 128 μM pantothenate. […] Assays for panes B and C were conducted at 37 °C at pH 6. Data are shown in mean ± SEM of three replicates.
# [2] = substrate: Nc1ncnc2c1ncn2[C@@H]1O[C@H](COP(=O)(O)OP(=O)(O)OP(=O)(O)O)[C@@H](O)[C@H]1O; assay: as above; details: other: apparent Km at saturating concentration of the other substrate, 37 °C, pH 6, mean ± SEM
# Experimental: as §1, §2, §3
Molecule,"Mechanism of inhibition with respect to ATP (recombinant EhPanK; various ATP, 0.2 mM pantothenate)","Mechanism of inhibition with respect to pantothenate (recombinant EhPanK; various pantothenate, 100 μM ATP)",Km [1],Vmax [1],kcat [1],kcat/Km [1],Km [2],Vmax [2],kcat [2],kcat/Km [2]
"CC(C)(COP(=O)(O)OP(=O)(O)OC[C@H]1O[C@@H](n2cnc3c(N)ncnc32)[C@H](O)[C@@H]1OP(=O)(O)O)[C@@H](O)C(=O)NCCC(=O)NCCS [CoA, Coenzyme A]",competitive,uncompetitive,,,,,,,,
B1,,,53.2 ± 7.1 µM,2.79 µmol/min/mg,2.11 ± 0.075 s⁻¹,39700 ± 1330 M⁻¹ s⁻¹,41.4 ± 3.9 µM,2.84 µmol/min/mg,2.15 ± 0.153 s⁻¹,51800 ± 3670 M⁻¹ s⁻¹
